Experimental findings from patent US20240165214A1, “COMPOSITIONS AND METHODS FOR STABILIZATION OF ALLOSTERIC PROTEINS” (priority 2021, published 2024) are described below.

Bounds are passed on as bounds.

Assay [1] addresses horseradish peroxidase (HRP) (horseradish) (UniProt P00433). The experiment in a line: time course of soluble HRP on fimbriae pre-treated with mAb824.
The target in assay [2] is FimH^wt (FimH adhesin of E. coli K12) (Escherichia coli K12) (UniProt P08191). The assay can be described thus: cell-based or functional assay.
The target of assay [3] is FimH^FocH (Escherichia coli K12; Escherichia coli) (UniProt P08191). The assay can be described thus: cell-based or functional assay.
For assay [4], the target named is FimH^wt (FimH adhesin of E. coli K12) (Escherichia coli K12) (UniProt P08191). The experiment in a line: ELISA, mAb824 on FimH^wt fimbriae, with 1% αmm. For orientation: An ELISA detects its analyte on a solid surface through an enzyme-linked reagent.
The target of assay [5] is FimH^FocH (Escherichia coli K12; Escherichia coli) (UniProt P08191). The experiment in a line: ELISA, mAb824 on FimH^FocH fimbriae, with 1% αmm.
Assay [6] addresses FimH^wt (FimH adhesin of E. coli K12) (Escherichia coli K12) (UniProt P08191). The assay can be described thus: ELISA, mAb824 on FimH^wt fimbriae, without αmm.
Assay [7] deals with FimH^FocH (Escherichia coli K12; Escherichia coli) (UniProt P08191). The assay can be described thus: ELISA, mAb824 on FimH^FocH fimbriae, without αmm.
In the next assay the test system is yeast mannan. The experiment in a line: FimH-dependent bacterial adhesion to yeast mannan (Example 7). The format is cell-based. Particulars: 1% mannose. The method, then: FimH-dependent bacterial adhesion was analyzed as described previously. Briefly, Immulon 4HBX microtiter plates (Thermo Electron Corp.) were coated with 20 μg/mL of yeast mannan and plates were quenched with 0.2% BSA in PBS. Bacterial suspensions in PBS (OD540=2) were added to each well in a volume of 100 μl and incubated for 1 h at 37° C. After extensive washing, bound bacteria were stained with 0.1% (vol/vol) crystal violet for 20 min at room temperature and were washed several times with water. Then 100 μl of 50% (vol/vol) ethanol was added to each well, and the absorbance at a wavelength of 600 nm was measured. For inhibition, bacterial binding was tested in the presence of 1% mannose.

A further assay has as its system fimbrial FimH. The experiment in a line: mAb21 ELISA on fimbriae after αmm / Fab824 pre-treatment. The conditions noted are these: FimH^wt pre-treated with PBS only. Type of assay: binding, Escherichia coli. The text has this:
Bound antibodies were detected with a 1:5,000 diluted HRP-conjugated goat anti-mouse Fc antibody (Sigma-Aldrich). […] Binding of the latter antibody was detected using 1:5,000 diluted HRP-conjugated streptavidin (Invitrogen).

A further assay has as its target T1, asialofetuin (UniProt P12763 19-359, oligosaccharides with terminal galactose (beta1-3)).
T1 construct: also called asialated fetuin
T1 sequence (looked up): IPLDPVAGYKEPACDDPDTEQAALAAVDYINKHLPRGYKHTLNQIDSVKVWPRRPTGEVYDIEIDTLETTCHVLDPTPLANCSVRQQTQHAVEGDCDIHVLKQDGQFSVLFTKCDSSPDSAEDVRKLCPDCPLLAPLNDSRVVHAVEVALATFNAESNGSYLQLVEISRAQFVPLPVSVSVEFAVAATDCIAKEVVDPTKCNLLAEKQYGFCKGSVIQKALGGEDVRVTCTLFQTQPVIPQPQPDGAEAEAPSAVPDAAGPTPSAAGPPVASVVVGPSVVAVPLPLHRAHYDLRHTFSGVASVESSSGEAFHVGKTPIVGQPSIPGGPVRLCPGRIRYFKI
The experiment in a line: adhesion of bacteria expressing the FmlH variant to surface-coated asialofetuin, crystal violet, absorbance 600 nm.

horseradish peroxidase (HRP) (horseradish), sequence (P00433 31-338): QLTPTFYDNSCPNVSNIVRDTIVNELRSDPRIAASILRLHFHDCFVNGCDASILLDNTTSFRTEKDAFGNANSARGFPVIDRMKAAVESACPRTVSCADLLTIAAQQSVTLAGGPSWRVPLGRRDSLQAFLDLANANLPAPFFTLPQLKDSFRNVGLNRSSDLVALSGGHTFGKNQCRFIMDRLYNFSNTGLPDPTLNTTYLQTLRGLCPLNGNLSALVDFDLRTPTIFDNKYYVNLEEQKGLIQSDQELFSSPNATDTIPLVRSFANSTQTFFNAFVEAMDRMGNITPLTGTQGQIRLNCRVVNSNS
Experimental for asialofetuin: Briefly, Immulon 4HBX microtiter plates (Thermo Electron Corp.) were coated with 20 μg/mL of asialofetuin (Sigma-Aldrich) and plates were quenched with 0.2% BSA in PBS. Bacterial suspensions in PBS (OD540=2) were added to each well in a volume of 100 μl and plates were spun for 2 min at 750×g. After extensive washing, bound bacteria were stained with 0.1% (vol/vol) crystal violet for 20 min at room temperature and were washed several times with water. Then 100 μl of 50% (vol/vol) ethanol was added to each well, and the absorbance at a wavelength of 600 nm was measured. For inhibition, bacterial binding was tested in the presence of 1% galactose (Sigma).
Briefly, Immulon 4HBX microtiter plates (ThermoFisher Scientific) were coated with 20 μg/mL of asialofetuin (Sigma-Aldrich) and plates were quenched with 0.2% BSA in PBS. Bacterial suspensions in PBS (OD540=2) were added to each well in a volume of 100 μl and plates were spun for 2 min at 750×g. After extensive washing, bound bacteria were stained with 0.1% (vol/vol) crystal violet for 20 min at room temperature and were washed several times with water. Then 100 μl of 50% (vol/vol) ethanol was added to each well, and the absorbance at a wavelength of 600 nm was measured. For inhibition, bacterial binding was tested in the presence of 1% galactose (Sigma).

Regarding FimH^FocH (from UniProt P08191 22-300), the fold decrease in the rate of binding with mAb824 against untreated in assay [1] was more than 10 fold.

For mAb824 (antibody), the RBC agglutination: time (in min) upon which noticeable aggregation of RBC was observed in assay [2] and in assay [3] was more than 60 min in each case. Further, the 50% effective concentration (EC50 (read off the curve)) in [4], in [5], in [6] and in assay [7] was 0.02 nM each time.

Regarding α-methyl-D-mannopyranoside [αmm], in the assay on yeast mannan, the “inhibition of bacterial adhesion to yeast mannan-coated surface” value was more than 95%. Moreover, in the assay with fimbrial FimH, the “αmm concentration at plateau of mAb21 binding” value is 0.1-1.0 % αmm.

B1: FmIH^wt (full-length wild-type FmlH adhesin) (other, Escherichia coli CFT073)
chain: FSCNVDGGSSIGAGTTSVYVNLDPVIQPGQNLVVDLSQHISCWNDYGGWYDTDHINLVQGSAFAGSLQSYKGSLYWNNVTYPFPLTTNTNVLDIGDKTPMPLPLKLYITPVGAAGGVVIKAGEVIARIHMYKIATLGSGNPRNFTWNIISNNSVVMPTGGCTVDSRNVTVDLPDFPGSAEIPLGVYCSSEQKLSFYLSGATTDSSRQVFANTAPDATKASGVGVTLMRNGKILATGENVSLGTVNKSKVPLGLSATYGQTGNKVSAGTVQSVIGVTFIYE
notes: domain: pilin domain; Expressed on bacteria in the type 1 fimbrial background
Consider B1, for which, in the assay with asialofetuin, the binding result is “no binding”.

As a reminder, the EC50 (read off the curve) is the concentration giving half of the maximal effect. A high value points to a less potent agent.
